From PMC9453709

Target: SARS-CoV-2 Omicron BA.1 S glycoprotein ectodomain with S6P and GSAS mutations (SARS-CoV-2)
Experiment: cryo-EM structure

SARS-CoV-2 Omicron BA.1 S glycoprotein ectodomain with S6P and GSAS mutations (domain or fragment)
stoichiometry N: 3
